The source of these data is article PMC3587840 (Nature, 2010).

Experiment [1] deals with T1, mouse PlxnA2_(1–4), C-terminal His-tag (mouse, UniProt P70207 35-703).
T1 sequence: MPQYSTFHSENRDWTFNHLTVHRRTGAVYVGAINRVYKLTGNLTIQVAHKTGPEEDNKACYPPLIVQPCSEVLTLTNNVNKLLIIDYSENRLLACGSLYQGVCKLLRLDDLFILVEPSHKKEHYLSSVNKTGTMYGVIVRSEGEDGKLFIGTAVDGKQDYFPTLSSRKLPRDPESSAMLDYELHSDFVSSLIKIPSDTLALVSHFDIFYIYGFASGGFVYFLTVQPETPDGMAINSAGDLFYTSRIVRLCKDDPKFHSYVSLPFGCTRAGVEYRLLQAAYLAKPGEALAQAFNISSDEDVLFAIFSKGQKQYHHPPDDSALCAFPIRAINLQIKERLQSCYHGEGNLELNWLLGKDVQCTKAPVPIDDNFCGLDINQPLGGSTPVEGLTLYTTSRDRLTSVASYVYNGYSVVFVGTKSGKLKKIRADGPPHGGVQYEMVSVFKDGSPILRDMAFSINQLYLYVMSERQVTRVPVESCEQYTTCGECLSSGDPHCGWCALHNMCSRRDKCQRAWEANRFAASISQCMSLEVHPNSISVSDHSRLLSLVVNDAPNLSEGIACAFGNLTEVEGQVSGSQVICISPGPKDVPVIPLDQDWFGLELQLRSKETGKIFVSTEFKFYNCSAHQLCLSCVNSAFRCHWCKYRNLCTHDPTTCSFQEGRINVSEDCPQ
Kind of experiment: SPR.

The target of a further experiment is PlxnA2_(1–4)(D193K) (mouse, UniProt P70207 35-703, D193K). Kind of experiment: SPR. A general note: SPR reads the build-up and loss of mass on a sensor chip optically.
The target in a further experiment is T2, SEMA4D_(ecto)(K395D) (human, UniProt Q92854 22-677, K395D).
T2 sequence: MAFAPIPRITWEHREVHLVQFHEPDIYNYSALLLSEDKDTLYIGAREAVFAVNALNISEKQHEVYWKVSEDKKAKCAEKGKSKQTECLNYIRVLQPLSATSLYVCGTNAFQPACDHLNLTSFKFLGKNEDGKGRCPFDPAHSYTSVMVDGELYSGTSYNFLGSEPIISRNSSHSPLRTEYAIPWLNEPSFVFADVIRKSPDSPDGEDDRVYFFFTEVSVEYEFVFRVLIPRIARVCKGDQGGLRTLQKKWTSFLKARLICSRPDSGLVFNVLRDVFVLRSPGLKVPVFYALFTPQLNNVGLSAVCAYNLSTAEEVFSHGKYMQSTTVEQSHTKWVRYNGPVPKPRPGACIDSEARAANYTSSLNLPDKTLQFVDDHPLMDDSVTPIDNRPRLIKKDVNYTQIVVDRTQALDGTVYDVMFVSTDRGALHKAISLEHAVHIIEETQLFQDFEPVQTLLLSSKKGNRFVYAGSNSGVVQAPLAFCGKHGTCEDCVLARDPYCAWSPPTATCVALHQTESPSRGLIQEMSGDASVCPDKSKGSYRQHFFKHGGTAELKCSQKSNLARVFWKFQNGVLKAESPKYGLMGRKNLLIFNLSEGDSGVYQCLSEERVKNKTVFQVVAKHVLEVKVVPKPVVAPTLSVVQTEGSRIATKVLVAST
Kind of experiment: SPR.

The target in experiment [2] is T3, human SEMA4D_(ecto), C-terminal His-tag (human, UniProt Q92854 22-677).
T3 sequence: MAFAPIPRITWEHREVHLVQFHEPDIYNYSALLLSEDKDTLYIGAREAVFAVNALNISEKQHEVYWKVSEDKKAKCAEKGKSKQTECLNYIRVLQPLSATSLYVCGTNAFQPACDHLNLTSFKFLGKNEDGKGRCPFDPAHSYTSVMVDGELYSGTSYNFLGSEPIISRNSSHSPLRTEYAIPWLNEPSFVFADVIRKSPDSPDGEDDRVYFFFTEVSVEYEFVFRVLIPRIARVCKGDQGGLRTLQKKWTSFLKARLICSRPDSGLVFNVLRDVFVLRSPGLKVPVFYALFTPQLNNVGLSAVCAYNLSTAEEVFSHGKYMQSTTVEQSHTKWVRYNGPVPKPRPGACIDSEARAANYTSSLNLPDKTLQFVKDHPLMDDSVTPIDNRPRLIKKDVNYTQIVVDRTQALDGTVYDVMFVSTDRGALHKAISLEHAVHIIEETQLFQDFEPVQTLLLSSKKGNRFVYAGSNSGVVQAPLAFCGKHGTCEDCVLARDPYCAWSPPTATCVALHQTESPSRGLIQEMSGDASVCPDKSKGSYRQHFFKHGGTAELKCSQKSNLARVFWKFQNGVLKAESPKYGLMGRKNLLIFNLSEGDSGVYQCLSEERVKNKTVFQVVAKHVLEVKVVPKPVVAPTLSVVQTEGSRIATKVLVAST
Kind of experiment: crystal structure.

B1: mouse Sema6A_(ecto), biotinylated at an engineered C-terminal tag (domain or fragment)
chain: GFPEDSEPISISHGNYTKQYPVFVGHKPGRNTTQRHRLDIQMIMIMNRTLYVAARDHIYTVDIDTSHTEEIYCSKKLTWKSRQADVDTCRMKGKHKDECHNFIKVLLKKNDDTLFVCGTNAFNPSCRNYRVDTLETFGDEFSGMARCPYDAKHANIALFADGKLYSATVTDFLAIDAVIYRSLGDSPTLRTVKHDSKWLKEPYFVQAVDYGDYIYFFFREIAVEYNTMGKVVFPRVAQVCKNDMGGSQRVLEKQWTSFLKARLNCSVPGDSHFYFNILQAVTDVIRINGRDVVLATFSTPYNSIPGSAVCAYDMLDIANVFTGRFKEQKSPDSTWTPVPDERVPKPRPGCCAGSSSLEKYATSNEFPDDTLNFIKTHPLMDEAVPSIINRPWFLRTMVRYRLTKIAVDNAAGPYQNHTVVFLGSEKGIILKFLARIGSSGFLNGSLFLEEMNVYNPEKCSYDGVEDKRIMGMQLDRASGSLYVAFSTCVIKVPLGRCERHGKCKKTCIASRDPYCGWVRESGSCAHLSPLSRLTFEQDIERGNTDGLGDCHNS
modifications: biotin on the engineered C-terminal tag (enzymatic)
Broadly, the Kd is the equilibrium constant for the complex coming apart. Take B1: in experiment [1], the affinity, expressed as Kd, was 2300 nM. This lies in the single-digit micromolar range.

B2: Sema6A_(ecto)(I322E), coupled to the chip (domain or fragment, mouse, UniProt O35464 19-571, looked up)
chain: GFPEDSEPISISHGNYTKQYPVFVGHKPGRNTTQRHRLDIQMIMIMNRTLYVAARDHIYTVDIDTSHTEEIYCSKKLTWKSRQADVDTCRMKGKHKDECHNFIKVLLKKNDDTLFVCGTNAFNPSCRNYRVDTLETFGDEFSGMARCPYDAKHANIALFADGKLYSATVTDFLAIDAVIYRSLGDSPTLRTVKHDSKWLKEPYFVQAVDYGDYIYFFFREIAVEYNTMGKVVFPRVAQVCKNDMGGSQRVLEKQWTSFLKARLNCSVPGDSHFYFNILQAVTDVIRINGRDVVLATFSTPYNSEPGSAVCAYDMLDIANVFTGRFKEQKSPDSTWTPVPDERVPKPRPGCCAGSSSLEKYATSNEFPDDTLNFIKTHPLMDEAVPSIINRPWFLRTMVRYRLTKIAVDNAAGPYQNHTVVFLGSEKGIILKFLARIGSSGFLNGSLFLEEMNVYNPEKCSYDGVEDKRIMGMQLDRASGSLYVAFSTCVIKVPLGRCERHGKCKKTCIASRDPYCGWVRESGSCAHLSPLSRLTFEQDIERGNTDGLGDCHNS
modifications: biotin on the engineered C-terminal tag (enzymatic)
Consider B2, for which the binding result in experiment [1] is recorded as “binds”.

B3: mouse Sema6A_(ecto), C-terminal His-tag (domain or fragment)
chain: GFPEDSEPISISHGNYTKQYPVFVGHKPGRNTTQRHRLDIQMIMIMNRTLYVAARDHIYTVDIDTSHTEEIYCSKKLTWKSRQADVDTCRMKGKHKDECHNFIKVLLKKNDDTLFVCGTNAFNPSCRNYRVDTLETFGDEFSGMARCPYDAKHANIALFADGKLYSATVTDFLAIDAVIYRSLGDSPTLRTVKHDSKWLKEPYFVQAVDYGDYIYFFFREIAVEYNTMGKVVFPRVAQVCKNDMGGSQRVLEKQWTSFLKARLNCSVPGDSHFYFNILQAVTDVIRINGRDVVLATFSTPYNSIPGSAVCAYDMLDIANVFTGRFKEQKSPDSTWTPVPDERVPKPRPGCCAGSSSLEKYATSNEFPDDTLNFIKTHPLMDEAVPSIINRPWFLRTMVRYRLTKIAVDNAAGPYQNHTVVFLGSEKGIILKFLARIGSSGFLNGSLFLEEMNVYNPEKCSYDGVEDKRIMGMQLDRASGSLYVAFSTCVIKVPLGRCERHGKCKKTCIASRDPYCGWVRESGSCAHLSPLSRLTFEQDIERGNTDGLGDCHNS
As for B3, the “fold weaker binding than wild type” value with PlxnA2_(1–4)(D193K) is over 9 fold.

B4: PLXNB1_(1–2)(D139K) (domain or fragment)
chain: LQPLPPTAFTPNGTYLQHLARDPTSGTLYLGATNFLFQLSPGLQLEATVSTGPVLDSRDCLPPVMPDECPQAQPTNNPNQLLLVSPGALVVCGSVHQGVCEQRRLGQLEQLLLRPERPGKTQYVAANDPAVSTVGLVAQGLAGEPLLFVGRGYTSRGVGGGIPPITTRALWPPDPQAAFSYEETAKLAVGRLSEYSHHFVSAFARGASAYFLFLRRDLQAQSRAFRAYVSRVCLRDQHYYSYVELPLACEGGRYGLIQAAAVATSREVAHGEVLFAAFSSAAPPTVGRPPSAAAGASGASALCAFPLDEVDRLANRTRDACYTREGRAEDGTEVAYIEYDVNSDCAQLPVDTLDAYPCGSDHTPSPMASRVPLEATPILEWPGIQLTAVAVTMEDGHTIAFLGDSQGQLHRVYLGPGSDGHPYSTQSIQQGSAVSRDLTFDGTFEHLYVMTQSTLLKVPVASCAQHLDCASCLAHRDPYCGWCVLLGRCSRRSECSRGQGPEQWLWSFQPELGCLQ
Regarding B4, the binding result in the experiment with SEMA4D_(ecto)(K395D) was “binds”.

B5: human PLXNB1_(1–2), C-terminal His-tag (domain or fragment)
chain: LQPLPPTAFTPNGTYLQHLARDPTSGTLYLGATNFLFQLSPGLQLEATVSTGPVLDSRDCLPPVMPDECPQAQPTNNPNQLLLVSPGALVVCGSVHQGVCEQRRLGQLEQLLLRPERPGDTQYVAANDPAVSTVGLVAQGLAGEPLLFVGRGYTSRGVGGGIPPITTRALWPPDPQAAFSYEETAKLAVGRLSEYSHHFVSAFARGASAYFLFLRRDLQAQSRAFRAYVSRVCLRDQHYYSYVELPLACEGGRYGLIQAAAVATSREVAHGEVLFAAFSSAAPPTVGRPPSAAAGASGASALCAFPLDEVDRLANRTRDACYTREGRAEDGTEVAYIEYDVNSDCAQLPVDTLDAYPCGSDHTPSPMASRVPLEATPILEWPGIQLTAVAVTMEDGHTIAFLGDSQGQLHRVYLGPGSDGHPYSTQSIQQGSAVSRDLTFDGTFEHLYVMTQSTLLKVPVASCAQHLDCASCLAHRDPYCGWCVLLGRCSRRSECSRGQGPEQWLWSFQPELGCLQ
Take B5: in experiment [2], the binding result is “binds”.
